According to article doi:10.1101/2025.11.17.688798, “Engineering directional phosphoryl flow enables programmable signaling dynamics in bacteria” (bioRxiv, 2025):

B1: Spo0A-REC (domain or fragment, B. subtilis, UniProt P06534 1-123, looked up)
chain: MEKIKVCVADDNRELVSLLSEYIEGQEDMEVIGVAYNGQECLSLFKEKDPDVLVLDIIMPHLDGLAVLERLRESDLKKQPNVIMLTAFGQEDVTKKAVDLGASYFILKPFDMENLVGHIRQVS
notes: PDB 1QMP (Spo0A receiver domain) was the search probe; also called Spo0A receiver domain; A3; source: E. coli BL21 (DE3) pLysS, purified (HisTrap IMAC, TEV cleavage, reverse IMAC, Superdex 75 SEC); not shown: His6, N-terminal, cleaved
B2: Spo0B (enzyme, B. subtilis, UniProt P06535 1-192, looked up)
chain: MKDVSKNQEENISDTALTNELIHLLGHSRHDWMNKLQLIKGNLSLQKYDRVFEMIEEMVIDAKHESKLSNLKTPHLAFDFLTFNWKTHYMTLEYEVLGEIKDLSAYDQKLAKLMRKLFHLFDQAVSRESENHLTVSLQTDHPDRQLILYLDFHGAFADPSAFDDIRQNGYEDVDIMRFEITSHECLIEIGLD
notes: Spo0B, sporulation phosphotransferase of B. subtilis; Two protomers of Spo0B stand in the complex; the Spo0B dimer of PDB 1IXM was the search probe; also called phosphotransferase Spo0B; transferase; source: E. coli BL21 (DE3) pLysS, purified (HisTrap IMAC, TEV cleavage, reverse IMAC, Superdex 75 SEC); not shown: His6, N-terminal, cleaved

What was measured:
Spo0B = target: B2; experiment: crystal structure; purified Spo0B and Spo0A-REC mixed at 1:1.1 equivalents with 10 mM MgCl2 in 20 mM Tris-HCl pH 8.0, 0.1 M NaCl; sitting-drop vapour diffusion at 293 K; two crystal forms, 2.1 and 3.5 Å; details: both partners purified
[1] = target: the molecule itself; experiment: as above

B1
stoichiometry N (Spo0B): 1 RR per phosphotransferase chain (printed as 2:2)

B2
binding result [1]: binds
